Numbering of substitutions follows the chain as printed.
B1: anti-HSA VHH antibody A18 fused onto a human IgG1-Fc (Fc fusion)
chain: QEQLVESGGGLVQAGGSLRLSCAASTRTINIYAMAWFRQAPGKEREFVAAVTWSGLTRDYADSVKGRFTISRDNPKNTLYLQMNSLQPEDTAVYYCAAGRYSTGTHDYDYWGQGTQVTVSS
notes: Llama VHH; also called Ab A18; not shown: human IgG1 Fc
B2: anti-HSA VHH antibody A11 fused onto a human IgG1-Fc (Fc fusion)
chain: QVQVVESGGGLVQPGGSLRLSCAASGMSSANVMGWYRQVPGNQRELVARITSSGRTMYSDSVLGRFTISRGGAGNTADLQMNMLKPEDTAIYICNIRILGSFDPDSGYWGQGTQVTVSS
notes: Llama VHH; also called Ab A11; not shown: human IgG1 Fc
B3: anti-HSA VHH antibody A17 fused onto a human IgG1-Fc (Fc fusion)
chain: QVQLVESGGELVQAGGSLRLSCVVSGRTFRTRTMGWFRQAPGKEREYVAHISANGPITDYSDSVKGRFAISRDNAKNTVNLQMNSLKPEDTAVYYCALHNGIGVRTVPSQYDSWGQGTQVTVSS
notes: Llama VHH; also called Ab A17; not shown: human IgG1 Fc
B4: anti-HSA VHH antibody A16 fused onto a human IgG1-Fc (Fc fusion)
chain: QVQLVESGGGLVQAGGTLRLSCTASGSTFRGNGMAWHRQAPGKEREFVAYMGMTDRITYAESVKGRFTLSRDDAKNRVYLHMNNLEVEDTAVYYCTAFGSWGQGTQVTVSS
notes: Llama VHH; also called Ab A16; not shown: human IgG1 Fc
B5: anti-HSA VHH antibody A2 fused onto a human IgG1-Fc (Fc fusion)
chain: QVQLVESGGGLVQAGGSLRLSCAASGRSVSLYHVGWFRHTPGKEREFVAATAWHDGSTSYADSVKGRFTISRNNAKNTVYLQMNSLQPEDTAVYYCAGEAKLGGIYSRWRDYEYWGQGTQVTVSS
notes: Llama VHH; also called Ab A2; not shown: human IgG1 Fc
B6: anti-HSA VHH antibody A6 fused onto a human IgG1-Fc (Fc fusion)
chain: B5 chain
notes: Llama VHH; also called Ab A6; not shown: human IgG1 Fc
B7: anti-HSA VHH antibody A9 fused onto a human IgG1-Fc (Fc fusion)
chain: QVQLVESGGGLVQAGGSLRLSCAASGRTFSNDAMGWFRQAPGKERVFVATISWKSSTYYADSVKGRFTISRDHAKNTVYLQMNNLKPEDTAVYYCVADPYGLGFNPSDYDYWGQGTQVTVSS
notes: Llama VHH; also called Ab A9; not shown: human IgG1 Fc
B8: anti-HSA VHH antibody A7 fused onto a human IgG1-Fc (Fc fusion)
chain: QVQLVESGGGLVQAGGSLRLSCAASGRSVSLYHVGWFRHTPGKEREFVAATAWHDGSTSYADSVKGRFTISRDSAKNTVFLQMSSLQPEDTAVYYCAADPGGSSWSQPWYDYWGQGTQVTVSS
notes: Llama VHH; also called Ab A7; not shown: human IgG1 Fc
B9: anti-HSA VHH antibody A15 fused onto a human IgG1-Fc (Fc fusion)
chain: QVQLVESGGGLVQPGGSLRLSCAASGFAFRGFGMSWVRQAPGKGFEWVSSINNGGSDTRYADSVKGRFTISRDNARNTLYLQMNSLKPEDTAVYYCAIGGPGASPSGQGTQVTVSS
notes: Llama VHH; also called Ab A15; not shown: human IgG1 Fc
B10: anti-HSA VHH antibody A14 fused onto a human IgG1-Fc (Fc fusion)
chain: B9 chain with A28T, N53S, S56E, A61S, P101A, S104T
notes: Llama VHH; also called Ab A14; not shown: human IgG1 Fc
B11: anti-HSA VHH antibody A12 fused onto a human IgG1-Fc (Fc fusion)
chain: B9 chain with Q1E, A28T, Q39R, G44E, N53G, S56E, A61S, T91S, S104T, Q108P
notes: Llama VHH; also called Ab A12; not shown: human IgG1 Fc
B12: humanized anti-HSA VHH antibody A20 fused onto a human IgG1-Fc (Fc fusion)
chain: B9 chain with L11V, F45L, R59Y, A75S, R76K, K87R, P88A
notes: also called Ab A20; anti-HSA A20; not shown: human IgG1 Fc
B13: anti-HSA VHH antibody A1 fused onto a human IgG1-Fc (Fc fusion)
chain: QVQLVESGGGLVQPGGSLRLSCAASGRIFSTYAMGWFRQPPGKEREFVASINRSGDSTYYADSVKGRFTISRDNAKNTGYLQMSSLKPEDTAVYYCAADSDGIGWFNSFEYDYWGRGTQVTVSS
notes: Llama VHH; also called Ab A1; not shown: human IgG1 Fc
B14: anti-HSA VHH antibody A4 fused onto a human IgG1-Fc (Fc fusion)
chain: B13 chain with N74D, T78M
notes: Llama VHH; also called Ab A4; not shown: human IgG1 Fc
B15: anti-HSA VHH antibody A13 fused onto a human IgG1-Fc (Fc fusion)
chain: QVQLVESGGGSVQPGGSLRLSCAASGRNFNPMGWFRQAPGKQRESVAAIGTDGSTKYADSVKGRFTISRDNGKNTVYLQMNSLKSEDTAVYYCNVGGWGISWFPWGRGTQVSVSS
notes: Llama VHH; also called Ab A13; not shown: human IgG1 Fc
B16: anti-HSA VHH antibody A10 fused onto a human IgG1-Fc (Fc fusion)
chain: QVQLVESGGGLVQAGGSLRLSCLASGGTFSSYAMGWFRQAPGKEREFVAAISWKSSTYYTDSVKGRFTISRDNAKNTVYLQMNSLTPEDTAVYYCAADPTGSYDQPWYDYWGQGTQVTVSS
notes: Llama VHH; also called Ab A10; not shown: human IgG1 Fc
B17: anti-HSA VHH antibody A3 fused onto a human IgG1-Fc (Fc fusion)
chain: QVQLVESGGGLVQAGGSLRLSCAASGRTFSIYDMGWFRQAPGKEREFVAATNLRGVSTRYADSVKGRFTISGDNAKNTVSLQMNSLIPEDTAVYYCAAAVSNWLAKDPSAYSYWGQGTQVTVSS
notes: Llama VHH; also called Ab A3; not shown: human IgG1 Fc
B18: anti-HSA VHH antibody A8 fused onto a human IgG1-Fc (Fc fusion)
chain: QVQLVESGGGLVQPGGSLRLSCAASGSTWSINTLAWYRQAPGKQRDLVARISSGGSTHYADSVKGRFTVSRDNAENTLVLQMNSLKPEDTAVYYCYAQSTWYPPSWGQGTQVTVSS
notes: Llama VHH; also called Ab A8; not shown: human IgG1 Fc
B19: humanized anti-HSA VHH antibody A19 fused onto a human IgG1-Fc (Fc fusion)
chain: B18 chain with Q1E, H58Y, V69I, A74S, E75K, V79Y, K86R, P87A, Q111L
notes: also called Ab A19; anti-HSA A19; not shown: human IgG1 Fc

target: T1, human serum albumin (human, UniProt P02768 25-609); experiment: BLI (OCTET RED96), VHH-IgG1-Fc on protein A biosensor, pH 7.4
T1 construct: The immunogen was rice-expressed HSA (Sigma A9731); also called HSA
Protocol: (§1) The VHH anti-albumin antibodies were evaluated for their ability to interact with human, monkey, and mouse serum albumins at different pH values, e.g., pH 7.4 or pH 5.5 to simulate the pH of an acidified endosome. Briefly, a VHH anti-albumin antibody was fused onto a human IgG1-Fc. The expressed protein was then loaded onto a protein A biosensor (OCTET® RED96). The biosensor was in turn dipped into a solution containing a human, monkey, or mouse serum at three or more different concentrations, e.g., 50, 100, or 200 nM, or 100, 200, or 400 nM. Primary experimental data was analyzed with global fitting to determine a dissociation constant (KD). The results are summarized in Table 7 (pH 5.5) and Table 8 (pH 7.4), wherein A represents a value no greater than 10 nM, B represents a value greater than 10 nM but no greater than 100 nM, and C represents a value greater than 100 nM but no greater than 500 nM.

Binder	binding result
B1	no binding
B2	no binding

target: T2, monkey serum albumin (monkey (cynomolgus monkey in paragraph 472), UniProt A2V9Z4 25-608); experiment: as above
T2 construct: also called cynomolgus monkey serum albumin; CySA
Protocol: as §1

Binder	binding result
B3	no binding
B4	no binding
B1	no binding
B2	no binding

target: T3, mouse serum albumin (mouse, UniProt P07724 25-608); experiment: as above
T3 construct: also called MuSA
Protocol: as §1

Binder	binding result
B3	no binding
B5	no binding
B6	no binding
B7	no binding
B4	no binding
B8	no binding
B1	no binding
B2	no binding
B9	no binding
B10	no binding
B11	no binding
B12	no binding
B13	no binding
B14	no binding
B15	no binding
B16	no binding
B17	no binding

target: T1, human serum albumin; experiment: BLI (OCTET RED96), VHH-IgG1-Fc on protein A biosensor, albumin in solution, pH 5.5; grade legend in paragraph 477
Protocol: as §1

Binder	Kd [nM]
B18	≤ 10

target: T1, human serum albumin; experiment: BLI (OCTET RED96), VHH-IgG1-Fc on protein A biosensor, albumin in solution, pH 7.4; grade legend in paragraph 477
Protocol: as §1

Binder	Kd [nM]
B5	≤ 10
B6	≤ 10
B7	≤ 10
B13	≤ 10
B17	≤ 10

target: T2, monkey serum albumin; experiment: as above
Protocol: as §1

Binder	Kd [nM]
B19	≤ 10
B5	≤ 10
B6	≤ 10
B13	≤ 10
B14	≤ 10

— patent US20220195021A1 (ANWITA BIOSCIENCES, published 2022)
